Results published in paper PMC3633659.

What was measured:
[1] = target: Mamu-A2*01:02 (Chinese rhesus macaque | not stated); test: radioligand binding
[2] = target: Mamu-B*010:01 (Chinese rhesus macaque | not stated); test: radioligand binding

B1: … (C. trachomatis NADH-ubiquinone-oxidoreductase-a-chain) (peptide)
peptide: MRDHTITLL
For B1, the IC50 [1] was > 20 µM and the IC50 [2] was 0.008 µM.

B2: … (E. coli derived) (peptide)
peptide: RRYQKSTEL
In the case of B2, the IC50 [1] is reported as 6.65 µM and the IC50 [2] is reported as 0.291 µM.

B3: … (C. trachomatis recC exodeoxyribonuclease-V g chain) (peptide)
peptide: DRLALLANL
With B3 the IC50 [1] was 19.1 µM and the IC50 [2] was > 20 µM.

B4: … (C. trachomatis protease ATPase) (peptide)
peptide: NRAKQVIKL
B4 was tested, and the IC50 [1] was > 20 µM and the IC50 [2] was 0.106 µM.

B5: … (Aggrecan precursor p667) (peptide)
peptide: SRHHAFCFR
In the case of B5, the IC50 [1] is reported as 2.06 µM and the IC50 [2] is reported as > 20 µM.

B6: … (C. trachomatis ATP-dependent zinc protein) (peptide)
peptide: EREQTLNQL
For B6, the IC50 [1] was 13.2 µM and the IC50 [2] was > 20 µM.

B7: … (Y. enterocolitica Hsp60) (peptide)
peptide: KRVVINKDT
B7 was tested, and the IC50 [1] was > 20 µM and the IC50 [2] was > 20 µM.
